Article PMC3901395, “Multivalent interactions of the SUMO-interaction motifs in RING finger protein 4 determine the specificity for chains of the SUMO” (Biochemical Journal, 2013)

Experiments:
[1] = tested on: mono-SUMOs and SUMO chains; test: ITC binding to mono-SUMOs and SUMO chains (general statements); details: full-length dimerized RNF4 vs SIM domain
Source text: (§1) For expression in Escherichia coli, linear poly-SUMO chains were generated as described previously with slight modifications. After the combined PCR/ligation reaction, the 4×SUMO2-ΔN11 or 4×SUMO1-ΔN15 DNA polymers were separated from smaller polymers by agarose gel electrophoresis and individually extracted (Macherey–Nagel). These were then subjected to a second PCR with primers to create BamHI and XhoI restriction sites, a C-terminal GG motif and a stop codon. The resulting fragments coding for di-, tri- and tetra-SUMO2-ΔN11 or SUMO1-ΔN15 chains were amplified and cloned into pGEX-4T2. […] Each monomer in these chains is separated by RS replacing the natural GG motif. A similar strategy was used to design C-terminally GFP–HA2-tagged linear poly-SUMOs in the copper-inducible Ycplac22 vector for expression in S. cerevisiae. […]
The mono-SUMOs and linear poly-SUMO1 and poly-SUMO2 proteins as well as all RNF4 constructs were expressed as GST-fusion proteins from E. coli Rosetta™ 2(DE3)pLysS cells (Novagen) cultivated in LB medium with 100 μg/ml ampicillin and 30 μg/ml chloramphenicol after induction with 0.1 mM IPTG at 20°C for 12 h. […]
Binding of peptides and proteins to SUMOs was investigated by ITC using either a VP-ITC or an ITC200 (GE Healthcare). […] Protein concentrations were determined by measuring the absorption at 280 nm. […]

di-SUMO2–GFP–HA2 = test: Proteasomal targeting of di-SUMO2–GFP–HA2 by RNF4 in yeast; assay type: cell-based, S. cerevisiae
Source text: as §1, with “motif.” for “motif. A similar strategy was used to design C-terminally GFP–HA2-tagged linear poly-SUMOs in the copper-inducible Ycplac22 vector for expression in S. cerevisiae.”
(§2) wt (wild-type) S. cerevisiae strains (JD47-13C) containing centromeric (low copy) plasmids expressing various (SUMO2)n–GFP–HA2 ([…]) fusions were grown overnight in minimal medium composed of 0.67% yeast nitrogen base with 2% raffinose as a carbon source. Cells from the overnight cultures were used to inoculate cultures with minimal media containing 2% galactose at a starting attenuance measured at 600 nm of 0.25. […] The levels of substrates and, as a loading control, levels of CDC11 were analysed by Western blotting and detection with an Odyssey infrared fluorescence imaging system (LI-COR).

tri-SUMO2–GFP–HA2 = test: Proteasomal targeting of tri-SUMO2–GFP–HA2 by RNF4 in yeast; assay type: cell-based, S. cerevisiae; details: yeast coexpressing RNF4; Western blot, normalized to CDC11
Source text: as §1, with “motif.” for “motif. A similar strategy was used to design C-terminally GFP–HA2-tagged linear poly-SUMOs in the copper-inducible Ycplac22 vector for expression in S. cerevisiae.”
as §2

tetra-SUMO2–GFP–HA2 = test: Proteasomal targeting of tetra-SUMO2–GFP–HA2 by RNF4 in yeast; assay type: cell-based, S. cerevisiae; details: yeast coexpressing RNF4; Western blot, normalized to CDC11
Source text: as §1, with “motif.” for “motif. A similar strategy was used to design C-terminally GFP–HA2-tagged linear poly-SUMOs in the copper-inducible Ycplac22 vector for expression in S. cerevisiae.”
as §2

PML-NBs in HeLa cells = test: Disruption of PML-NBs by overexpression of RNF4 in HeLa cells; assay type: cell-based; details: HeLa cells transfected with HA-tagged full-length RNF4; automatic image analysis, 30 to 60 cells per condition; GFP control plasmid 12 PML-NBs, untreated average 15
Experimental: HeLa B-cells were grown on coverslips and fixed in PBS with 3% paraformaldehyde. After permeabilization in PBS with 0.2% saponin (Sigma–Aldrich), cells were blocked in PBS, 3% BSA and 0.2% saponin. Primary and Alexa Fluor®-labelled secondary antibodies (Invitrogen) were applied in blocking buffer. Coverslips were embedded in ProLong® Gold Antifade (Invitrogen) and examined using a Zeiss Axioplan2 fluorescence microscope. Proteins and epitope tags were detected with the following antibodies against PML (A167 and A168; Bethyl), HA (haemagglutinin) (3F10; Roche, 16B12; Covance) and CDC11 (SC-7170; Santa Cruz Biotechnology). The secondary antibodies were labelled with Alexa Fluor® 546, Alexa Fluor® 647 or Alexa Fluor® 670 (Invitrogen), or IRDye800 (Rockland). For quantification of PML-NBs, cells were acquired using a Zeiss Meta 510 Confocal microscope, 63× objective NA (numerical aperture) 1.4 and appropriate laser and filter settings. Z-stacks were taken according to Nyquist criteria. Microscopic pictures were analysed with Volocity 6.2 Cellular Imaging & Analysis Software (PerkinElmer). Transfected cells were automatically identified within the 546 nm channel and the amount of PML-NBs (647 nm channel) that were localized within the nuclei of transfected cells were automatically counted.

B1: RNF4 FL: full-length human RNF4 (RING finger protein 4); FLAG-tagged in yeast, HA-tagged in HeLa cells (protein)
chain: MSTRKRRGGAINSRQAQKRTREATSTPEISLEAEPIELVETAGDEIVDLTCESLEPVVVDLTHNDSVVIVDERRRPRRNARRLPQDHADSCVVSSDDEELSRDRDVYVTTHTPRNARDEGATGLRPSGTVSCPICMDGYSEIVQNGRLIVSTECGHVFCSQCLRDSLKNANTCPTCRKKINHKRYHPIYI
modifications: left off: GST, end not stated, cleaved
notes: full-length human RNF4 (RING finger protein 4); FLAG-tagged in yeast, HA-tagged in HeLa cells
binding to SUMO chains compared with the monomeric SIM domain [1]: stronger as compared with the monomeric SIM domain, especially for short SUMO chains
level of di-SUMO2–GFP–HA reporter (control without RNF4 = 100%) (di-SUMO2–GFP–HA2; yeast coexpressing RNF4, Western blot, normalized to CDC11): approximately 55%
targeting of di-SUMO2 in yeast (di-SUMO2–GFP–HA2; yeast coexpressing wt RNF4): efficiently targets di-SUMO2 in yeast
level of tri-SUMO2–GFP–HA reporter (control without RNF4 = 100%) (tri-SUMO2–GFP–HA2): 45%
level of tetra-SUMO2–GFP–HA reporter (control without RNF4 = 100%) (tetra-SUMO2–GFP–HA2): 43%
number of PML-NBs after transfection (PML-NBs in HeLa cells): approximately five
